According to publication PMC8597880:

Target: recombinant SARS-CoV-2 RBD, Prototype (SARS-CoV-2, prototype) (UniProt P0DTC2)
Assay: BLI

Substance: NIH-CoVnb-112 (VHH)
- Kd: 1.59 nM
- koff: 0.000236 s⁻¹
